Source: US20260001928A1 (CORTERIA PHARMACEUTICALS, priority 2022, published 2026)
*1 amine or outer side, *2 acyl side, *3 side chain or, on linkers, in order; H or OH if unused. Side-chain parts run from the residue outwards. [ ]: non-standard residue; d: D form. The star is where a group is joined. C18 diacid = O=C(O)CCCCCCCCCCCCCCCCC(=O)*; C16 diacid = O=C(O)CCCCCCCCCCCCCCC(=O)*; γGlu = O=C(O)[C@H](CCC(=O)[*:2])N[*:1]; αMeL = CC(C)C[C@](C)(N)C(=O)O; AEEA = NCCOCCOCC(=O)O; Aib = CC(C)(N)C(=O)O

T1: CRF1R receptor (UniProt P34998 24-415, limits assumed)
T1 sequence (looked up): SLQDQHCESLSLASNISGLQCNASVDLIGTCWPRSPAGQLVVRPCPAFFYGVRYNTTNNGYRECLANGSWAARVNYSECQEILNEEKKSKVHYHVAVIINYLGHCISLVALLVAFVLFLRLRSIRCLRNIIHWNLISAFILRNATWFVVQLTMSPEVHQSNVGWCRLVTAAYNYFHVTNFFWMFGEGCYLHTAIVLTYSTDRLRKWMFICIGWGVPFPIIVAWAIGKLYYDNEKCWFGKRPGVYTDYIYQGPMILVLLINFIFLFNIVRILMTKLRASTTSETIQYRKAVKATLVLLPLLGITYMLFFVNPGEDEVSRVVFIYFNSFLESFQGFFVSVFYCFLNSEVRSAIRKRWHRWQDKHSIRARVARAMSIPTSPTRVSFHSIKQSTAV


Columns and labels:
[1] = target: human corticotropin-releasing factor 2a (CRF2a receptor) (human), Q13324; test: cell-based or functional assay
Chain of human corticotropin-releasing factor 2a (CRF2a receptor) (human), Q13324 (Q13324 20-411): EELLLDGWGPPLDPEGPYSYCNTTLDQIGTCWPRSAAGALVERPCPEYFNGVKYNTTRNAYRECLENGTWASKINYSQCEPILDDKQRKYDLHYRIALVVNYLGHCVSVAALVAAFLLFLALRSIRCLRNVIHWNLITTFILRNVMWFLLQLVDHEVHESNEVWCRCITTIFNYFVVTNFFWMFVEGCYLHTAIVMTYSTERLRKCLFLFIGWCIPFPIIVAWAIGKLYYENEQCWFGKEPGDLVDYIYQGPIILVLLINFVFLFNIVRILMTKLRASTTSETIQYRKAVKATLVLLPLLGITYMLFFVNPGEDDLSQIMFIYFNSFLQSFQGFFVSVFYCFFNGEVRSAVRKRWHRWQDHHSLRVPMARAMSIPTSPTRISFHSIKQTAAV

CRF1R receptor = target: T1, CRF1R receptor; test: cell-based or functional assay

Binder	EC50 [nM] (cAMP) [1]	Emax (% I) (CRF1R receptor) [%]
Ac-IVLSLDVPIKLK([AEEA-AEEA-γGlu-C18 diacid])KILLEQEKQKKQREQAETN[Aib]QILAQV-NH2 (SMILES CC[C@H](C)[C@H](NC(C)=O)C(=O)N[C@H](C(=O)N[C@@H](CC(C)C)C(=O)N[C@@H](CO)C(=O)N[C@@H](CC(C)C)C(=O)N[C@@H](CC(=O)O)C(=O)N[C@H](C(=O)N1CCC[C@H]1C(=O)N[C@H](C(=O)N[C@@H](CCCCN)C(=O)N[C@@H](CC(C)C)C(=O)N[C@@H](CCCCNC(=O)COCCOCCNC(=O)COCCOCCNC(=O)CC[C@H](NC(=O)CCCCCCCCCCCCCCCCC(=O)O)C(=O)O)C(=O)N[C@@H](CCCCN)C(=O)N[C@H](C(=O)N[C@@H](CC(C)C)C(=O)N[C@@H](CC(C)C)C(=O)N[C@@H](CCC(=O)O)C(=O)N[C@@H](CCC(N)=O)C(=O)N[C@@H](CCC(=O)O)C(=O)N[C@@H](CCCCN)C(=O)N[C@@H](CCC(N)=O)C(=O)N[C@@H](CCCCN)C(=O)N[C@@H](CCCCN)C(=O)N[C@@H](CCC(N)=O)C(=O)N[C@@H](CCCNC(=N)N)C(=O)N[C@@H](CCC(=O)O)C(=O)N[C@@H](CCC(N)=O)C(=O)N[C@@H](C)C(=O)N[C@@H](CCC(=O)O)C(=O)N[C@H](C(=O)N[C@@H](CC(N)=O)C(=O)NC(C)(C)C(=O)N[C@@H](CCC(N)=O)C(=O)N[C@H](C(=O)N[C@@H](CC(C)C)C(=O)N[C@@H](C)C(=O)N[C@@H](CCC(N)=O)C(=O)N[C@H](C(N)=O)C(C)C)[C@@H](C)CC)[C@@H](C)O)[C@@H](C)CC)[C@@H](C)CC)C(C)C)C(C)C) [SEQ ID NO 97]	3.17	0
Ac-IVLSLDVPIK[αMeL]K([γGlu-C16 diacid])Q[Aib]LLKQERQKKQREQAEKN[Aib]QILEQV-NH2 (SMILES CC[C@H](C)[C@H](NC(C)=O)C(=O)N[C@H](C(=O)N[C@@H](CC(C)C)C(=O)N[C@@H](CO)C(=O)N[C@@H](CC(C)C)C(=O)N[C@@H](CC(=O)O)C(=O)N[C@H](C(=O)N1CCC[C@H]1C(=O)N[C@H](C(=O)N[C@@H](CCCCN)C(=O)N[C@@](C)(CC(C)C)C(=O)N[C@@H](CCCCNC(=O)CC[C@H](NC(=O)CCCCCCCCCCCCCCC(=O)O)C(=O)O)C(=O)N[C@@H](CCC(N)=O)C(=O)NC(C)(C)C(=O)N[C@@H](CC(C)C)C(=O)N[C@@H](CC(C)C)C(=O)N[C@@H](CCCCN)C(=O)N[C@@H](CCC(N)=O)C(=O)N[C@@H](CCC(=O)O)C(=O)N[C@@H](CCCNC(=N)N)C(=O)N[C@@H](CCC(N)=O)C(=O)N[C@@H](CCCCN)C(=O)N[C@@H](CCCCN)C(=O)N[C@@H](CCC(N)=O)C(=O)N[C@@H](CCCNC(=N)N)C(=O)N[C@@H](CCC(=O)O)C(=O)N[C@@H](CCC(N)=O)C(=O)N[C@@H](C)C(=O)N[C@@H](CCC(=O)O)C(=O)N[C@@H](CCCCN)C(=O)N[C@@H](CC(N)=O)C(=O)NC(C)(C)C(=O)N[C@@H](CCC(N)=O)C(=O)N[C@H](C(=O)N[C@@H](CC(C)C)C(=O)N[C@@H](CCC(=O)O)C(=O)N[C@@H](CCC(N)=O)C(=O)N[C@H](C(N)=O)C(C)C)[C@@H](C)CC)[C@@H](C)CC)C(C)C)C(C)C) [SEQ ID NO 20]	1.09	3

Continued, values first:

EC50 [nM] (cAMP) [1]	Emax (% I) (CRF1R receptor) [%]	Binder
0.53	2	Ac-IVLSLDVPIKLK([γGlu-C16 diacid])KILLEQEKQKKQREQAETN[Aib]QILAQV-NH2 (SMILES CC[C@H](C)[C@H](NC(C)=O)C(=O)N[C@H](C(=O)N[C@@H](CC(C)C)C(=O)N[C@@H](CO)C(=O)N[C@@H](CC(C)C)C(=O)N[C@@H](CC(=O)O)C(=O)N[C@H](C(=O)N1CCC[C@H]1C(=O)N[C@H](C(=O)N[C@@H](CCCCN)C(=O)N[C@@H](CC(C)C)C(=O)N[C@@H](CCCCNC(=O)CC[C@H](NC(=O)CCCCCCCCCCCCCCC(=O)O)C(=O)O)C(=O)N[C@@H](CCCCN)C(=O)N[C@H](C(=O)N[C@@H](CC(C)C)C(=O)N[C@@H](CC(C)C)C(=O)N[C@@H](CCC(=O)O)C(=O)N[C@@H](CCC(N)=O)C(=O)N[C@@H](CCC(=O)O)C(=O)N[C@@H](CCCCN)C(=O)N[C@@H](CCC(N)=O)C(=O)N[C@@H](CCCCN)C(=O)N[C@@H](CCCCN)C(=O)N[C@@H](CCC(N)=O)C(=O)N[C@@H](CCCNC(=N)N)C(=O)N[C@@H](CCC(=O)O)C(=O)N[C@@H](CCC(N)=O)C(=O)N[C@@H](C)C(=O)N[C@@H](CCC(=O)O)C(=O)N[C@H](C(=O)N[C@@H](CC(N)=O)C(=O)NC(C)(C)C(=O)N[C@@H](CCC(N)=O)C(=O)N[C@H](C(=O)N[C@@H](CC(C)C)C(=O)N[C@@H](C)C(=O)N[C@@H](CCC(N)=O)C(=O)N[C@H](C(N)=O)C(C)C)[C@@H](C)CC)[C@@H](C)O)[C@@H](C)CC)[C@@H](C)CC)C(C)C)C(C)C) [SEQ ID NO 39]
0.28	6	Ac-IVLSLDVPIK[αMeL]K([γGlu-C16 diacid])QILLKQERQKKQREQAEKN[Aib]QILEQV-NH2 (SMILES CC[C@H](C)[C@H](NC(C)=O)C(=O)N[C@H](C(=O)N[C@@H](CC(C)C)C(=O)N[C@@H](CO)C(=O)N[C@@H](CC(C)C)C(=O)N[C@@H](CC(=O)O)C(=O)N[C@H](C(=O)N1CCC[C@H]1C(=O)N[C@H](C(=O)N[C@@H](CCCCN)C(=O)N[C@@](C)(CC(C)C)C(=O)N[C@@H](CCCCNC(=O)CC[C@H](NC(=O)CCCCCCCCCCCCCCC(=O)O)C(=O)O)C(=O)N[C@@H](CCC(N)=O)C(=O)N[C@H](C(=O)N[C@@H](CC(C)C)C(=O)N[C@@H](CC(C)C)C(=O)N[C@@H](CCCCN)C(=O)N[C@@H](CCC(N)=O)C(=O)N[C@@H](CCC(=O)O)C(=O)N[C@@H](CCCNC(=N)N)C(=O)N[C@@H](CCC(N)=O)C(=O)N[C@@H](CCCCN)C(=O)N[C@@H](CCCCN)C(=O)N[C@@H](CCC(N)=O)C(=O)N[C@@H](CCCNC(=N)N)C(=O)N[C@@H](CCC(=O)O)C(=O)N[C@@H](CCC(N)=O)C(=O)N[C@@H](C)C(=O)N[C@@H](CCC(=O)O)C(=O)N[C@@H](CCCCN)C(=O)N[C@@H](CC(N)=O)C(=O)NC(C)(C)C(=O)N[C@@H](CCC(N)=O)C(=O)N[C@H](C(=O)N[C@@H](CC(C)C)C(=O)N[C@@H](CCC(=O)O)C(=O)N[C@@H](CCC(N)=O)C(=O)N[C@H](C(N)=O)C(C)C)[C@@H](C)CC)[C@@H](C)CC)[C@@H](C)CC)C(C)C)C(C)C) [SEQ ID NO 19]
